Source: PMC3866087, “Heat Shock Transcription Factor σ^32 Co-opts the Signal Recognition Particle to Regulate Protein Homeostasis in E. coli” (PLoS Biology, 2013)

Target: T1, purified SecA (E. coli, UniProt P10408 1-901)
T1 construct: SecA, ATP-fueled motor protein of the Sec translocon of E. coli, purified; source: purified essentially as described [82]
Test: far-Western, overlay or dot blot; purified FtsY, Ffh, SecA or Ffh partially digested by Glu-C (V8) resolved on 10% SDS-PAGE, transferred to nitrocellulose, re-natured, incubated with purified WTσ^32, probed with polyclonal anti-σ^32
Conditions: both partners purified

T1 sequence (P10408 whole entry): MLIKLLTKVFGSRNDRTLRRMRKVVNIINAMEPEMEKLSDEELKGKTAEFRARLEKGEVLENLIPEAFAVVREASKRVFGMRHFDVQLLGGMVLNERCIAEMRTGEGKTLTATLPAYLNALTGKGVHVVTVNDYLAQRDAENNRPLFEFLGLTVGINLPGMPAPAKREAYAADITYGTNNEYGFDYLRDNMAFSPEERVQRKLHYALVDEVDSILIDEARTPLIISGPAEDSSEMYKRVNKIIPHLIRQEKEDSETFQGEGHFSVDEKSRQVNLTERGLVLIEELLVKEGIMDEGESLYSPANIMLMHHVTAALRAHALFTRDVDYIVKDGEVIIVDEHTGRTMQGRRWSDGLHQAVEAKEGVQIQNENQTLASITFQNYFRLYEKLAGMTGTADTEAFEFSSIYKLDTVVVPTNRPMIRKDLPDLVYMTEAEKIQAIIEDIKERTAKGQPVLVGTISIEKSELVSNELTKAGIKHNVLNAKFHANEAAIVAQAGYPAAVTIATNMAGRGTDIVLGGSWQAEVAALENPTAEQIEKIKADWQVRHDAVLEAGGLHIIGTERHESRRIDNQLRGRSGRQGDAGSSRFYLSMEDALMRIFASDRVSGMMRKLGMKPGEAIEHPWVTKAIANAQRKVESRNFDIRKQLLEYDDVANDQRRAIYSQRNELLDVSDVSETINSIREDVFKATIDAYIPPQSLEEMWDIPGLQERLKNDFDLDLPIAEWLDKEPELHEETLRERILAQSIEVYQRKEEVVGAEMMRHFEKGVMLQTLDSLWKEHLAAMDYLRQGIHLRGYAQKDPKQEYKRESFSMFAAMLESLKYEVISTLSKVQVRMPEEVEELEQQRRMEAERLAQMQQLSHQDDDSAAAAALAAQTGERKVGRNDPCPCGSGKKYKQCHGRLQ

- binding result: binds
B1: purified WTσ^32 (natural protein, E. coli, UniProt P0AGB3 1-284, looked up)
chain: MTDKMQSLALAPVGNLDSYIRAANAWPMLSADEERALAEKLHYHGDLEAAKTLILSHLRFVVHIARNYAGYGLPQADLIQEGNIGLMKAVRRFNPEVGVRLVSFAVHWIKAEIHEYVLRNWRIVKVATTKAQRKLFFNLRKTKQRLGWFNQDEVEMVARELGVTSKDVREMESRMAAQDMTFDLSSDDDSDSQPMAPVLYLQDKSSNFADGIEDDNWEEQAANRLTDAMQGLDERSQDIIRARWLDEDNKSTLQELADRYGVSAERVRQLEKNAMKKLRAAIEA
notes: RNA polymerase sigma factor σ^32 (RpoH) of E. coli, wild type, purified; called full-length in the discussion; The methods list 6×H-tagged, Strep-6×H-tagged and untagged σ^32; also called full-length σ^32; source: purified essentially as described [80]; chaperones removed with a wash of ATP, MgCl2 and two peptides
